Laboratory results: US20240360227A1

Columns and labels:
[1] = target: Recombinant human his-tagged IGF R extracellular domain protein (human) (UniProt P08069); test: SPR, Ab captured via anti-huIgG Fc, pH 7.4
[2] = target: Recombinant human his-tagged IGF R extracellular domain protein (human) (UniProt P08069); test: SPR, Ab captured via anti-huIgG Fc, dissociation at pH 6

| Binder | Kd [1] | koff [1] | kon [1] | Kd [2] | koff [2] | kon [2] |
| --- | --- | --- | --- | --- | --- | --- |
| VRDN-02075 (antibody, V domains shown) VH: QVQLQESGPGLVKPSETLSLTCTVSGYSITGGYLWNWIRQPPGKGLEWIGYISYHGTNNYKPSLKDRVTISRDTSKNQFSLKLSSVTAADTAVYYCARHGRVFFDYWGQGTLVTVSS VL: DIVMTQSPLSLPVTPGEPASISCRSHQSIVHSNGNTYLQWYLQKPGQSPQLLIYKVSNRLYGVPDRFSGSGSGTDFTLKISRVEAEDVGVYYCFQGSHVHWTFGQGTKVEIK | 237 pM | 2.76e-05 s⁻¹ | 116000 M⁻¹ s⁻¹ | 188 pM | 5.52e-05 s⁻¹ | 294000 M⁻¹ s⁻¹ |
| VRDN-02010 (antibody, V domains shown) VH: QVQLQESGPGLVKPSETLSLTCTVSGYSITGGYLHNWIRQPPGKGLEWIGYISYDGTNNYKPSLKDRVTISRDTSKNQFSLKLSSVTAADTAVYYCARYGRVFFDYWGQGTLVTVSS VL: DIVMTQSPLSLPVTPGEPASISCRSSQSIVHSNGNTYLQWYLQKPGQSPQLLIYKVSNRLYGVPDRFSGSGSGTDFTLKISRVEAEDVGVYYCFQGSHVPWTFGQGTKVEIK | 6950 pM | 0.00311 s⁻¹ | 447000 M⁻¹ s⁻¹ | 7610 pM | 0.00074 s⁻¹ | 97200 M⁻¹ s⁻¹ |
| VRDN-02011 (antibody, V domains shown) VH: QVQLQESGPGLVKPSETLSLTCTVSGYSITGGYLWHWIRQPPGKGLEWIGYISYDGTNNYKPSLKDRVTISRDTSKNQFSLKLSSVTAADTAVYYCARYGRVFFDYWGQGTLVTVSS VL: DIVMTQSPLSLPVTPGEPASISCRSSQSIVHSNGNTYLQWYLQKPGQSPQLLIYKVSNRLYGVPDRFSGSGSGTDFTLKISRVEAEDVGVYYCFQGSHVPWTFGQGTKVEIK | 432 pM | 4.55e-05 s⁻¹ | 105000 M⁻¹ s⁻¹ | 836 pM | 7.81e-05 s⁻¹ | 93400 M⁻¹ s⁻¹ |
| VRDN-02076 (antibody, V domains shown) VH: QVQLQESGPGLVKPSETLSLTCTVSGYSITGGYLWNWIRQPPGKGLEWIGYISYHGTNNYKPSLKDRVTISRDTSKNQFSLKLSSVTAADTAVYYCARHGRVFFDYWGQGTLVTVSS VL: DIVMTQSPLSLPVTPGEPASISCRSHQSIVHSNGNTYLQWYLQKPGQSPQLLIYKVSNRLYGVPDRFSGSGSGTDFTLKISRVEAEDVGVYYCFQGSHVPHTFGQGTKVEIK | 210 pM | 2.46e-05 s⁻¹ | 117000 M⁻¹ s⁻¹ | 178 pM | 6.76e-05 s⁻¹ | 381000 M⁻¹ s⁻¹ |

The remaining binders from weak to strong by Kd [1], led by results:

| Kd [1] | koff [1] | kon [1] | Kd [2] | koff [2] | kon [2] | Binder |
| --- | --- | --- | --- | --- | --- | --- |
| 16600 pM | 0.0206 s⁻¹ | 1.24e+06 M⁻¹ s⁻¹ | 13100 pM | 0.00143 s⁻¹ | 109000 M⁻¹ s⁻¹ | VRDN-02008 (antibody, V domains shown) VH: QVQLQESGPGLVKPSETLSLTCTVSGYSITGGHLWNWIRQPPGKGLEWIGYISYDGTNNYKPSLKDRVTISRDTSKNQFSLKLSSVTAADTAVYYCARYGRVFFDYWGQGTLVTVSS VL: DIVMTQSPLSLPVTPGEPASISCRSSQSIVHSNGNTYLQWYLQKPGQSPQLLIYKVSNRLYGVPDRFSGSGSGTDFTLKISRVEAEDVGVYYCFQGSHVPWTFGQGTKVEIK |
| 589 pM | 5.41e-05 s⁻¹ | 91800 M⁻¹ s⁻¹ | 1010 pM | 0.000103 s⁻¹ | 102000 M⁻¹ s⁻¹ | VRDN-02012 (antibody, V domains shown) VH: QVQLQESGPGLVKPSETLSLTCTVSGYSITGGYLWNWIRQPPGKGLEWIGHISYDGTNNYKPSLKDRVTISRDTSKNQFSLKLSSVTAADTAVYYCARYGRVFFDYWGQGTLVTVSS VL: DIVMTQSPLSLPVTPGEPASISCRSSQSIVHSNGNTYLQWYLQKPGQSPQLLIYKVSNRLYGVPDRFSGSGSGTDFTLKISRVEAEDVGVYYCFQGSHVPWTFGQGTKVEIK |
| 442 pM | 3.98e-05 s⁻¹ | 90000 M⁻¹ s⁻¹ | 967 pM | 8.4e-05 s⁻¹ | 86900 M⁻¹ s⁻¹ | VRDN-02009 (antibody, V domains shown) VH: QVQLQESGPGLVKPSETLSLTCTVSGYSITGGYHWNWIRQPPGKGLEWIGYISYDGTNNYKPSLKDRVTISRDTSKNQFSLKLSSVTAADTAVYYCARYGRVFFDYWGQGTLVTVSS VL: DIVMTQSPLSLPVTPGEPASISCRSSQSIVHSNGNTYLQWYLQKPGQSPQLLIYKVSNRLYGVPDRFSGSGSGTDFTLKISRVEAEDVGVYYCFQGSHVPWTFGQGTKVEIK |
